Test results as given in patent US12514920B1, “Respiratory syncytial virus mRNA vaccine, and preparation method therefor and use thereof” (Hangzhou Tianlong Pharmaceutical Co., Ltd., priority 2024, dated 2026).

B1: YK-RSV-055 (protein)
chain: QNITEEFYQSTCSAVSKGYLGALRTGWYTSVITIELSNIKENKCNGTDAKVKLIKQELDKYKNAVTDLQLLMQSTPATGSGSCIASGVAVSKVLHLEGEVNKIKSALLSTNKAVVSLSNGVSVLTFKVLDLKNYIDKQLLPILNKQSCSIPNIETVIEFQQKNNRLLEITREFSVNAGVTTPVSTYMLTNSELLSLINDMPITNDQKKLMSNNVQIVRQQSYSIMSICKEEVLAYVVQLPLYGVIDTPCWKLHTSPLCTTNTKEGSNICLTRTDRGWYCDNAGSVSFFPQAETCKVQSNRVFCDTMNSRTLPSEVNLCNVDIFNPKYDCKIMTSKTDVSSSVITSLGAIVSCYGKTKCTASNKNRGIIKTFSNGCDYVSNKGVDTVSVGNTLYYVNKQEGQSLYVKGEPIINFYDPLVFPSDEFDASISQVNEKINQSLAFIRKSDELLHNVNAGKSTTNIMITTIIIVIIVILLSLIAVGLLLY
B2: YK-RSV-057 (protein)
chain: QNITEEFYQSTCSAVSKGYLGALRTGWYTSVITIELSNIKENKCNGTDAKVKLIKQELDKYKNAVTDLQLLMQSTPATGSGSCIASGVAVSKVLHLEGEVNKIKSALLSTNKAVVSLSNGVSVLTFKVLDLKNYIDKQLLPILNKQSCSIPNIETVIEFQQKNNRLLEITREFSVNAGVTTPVSTYMLTNSELLSLINDMPITNDQKKLMSNNVQIVRQQSYSIMSCIKEEVLAYVVQLPLYGVIDTPCWKLHTSPLCTTNTKEGSNICLTRTDRGWYCDNAGSVSFFPQAETCKVQSNRVFCDTMNSRTLPSEVNLCNVDIFNPKYDCKIMTSKTDVSSSVITSLGAIVSCYGKTKCTASNKNRGIIKTFSNGCDYVSNKGVDTVSVGNTLYYVNKQEGQSLYVKGEPIINFYDPLVFPSDEFDASISQVNEKINQSLAFIRKSDELLHNVNAGKSTTNIMITTIIIVIIVILLSLIAVGLLLY

Legend:
[1] = test system: RSV pre-F antibody (3C12); experiment: Binding of epitope Φ of RSV F antigen mutants by flow cytometry; conditions: ratio of epitope Φ (3C12) to epitope II (11A9) binding rate
Summary of the method: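 293T cells were transfected with mRNA-LNP (300 ng mRNA) encoding the RSV F mutants and harvested after 16 h. Cells were stained with fluorescent 3C12 (pre-F-specific epitope Φ) or 11A9 (epitope II, pre-F and post-F) for 2 h at 4 °C in the dark, then washed and read by flow cytometry on 1×10^4 cells per measurement.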

[2] = test system: RSV pre-F antibody (3C12); experiment: ELISA binding of RSV F antigen mutants, epitope Φ; conditions: epitope Φ; for Binding amount to antibody/binding amount of PC-RSV-064 to antibody, Epitope Φ: antibody 3C12, relative to PC-RSV-064
Method: (§1) To investigate the binding of the RSV F antigen mutants to antibodies recognizing different epitopes, the binding amount was determined by an ELISA method in this example.
(§2) • 293T cells (purchased from ATCC cell bank); • Primary antibody: RSV pre-F antibody (3C12), epitope ([…] (Novoprotein, Cat. No.: DA101); • RSV pre-F antibody (7H11), epitope Quaternary (Novoprotein, Cat. No.: DA109); • RSV F antibody (11A9), epitope II (Novoprotein, Cat. No.: DA091); • RSV F antibody (4B9), epitope III (Novoprotein, Cat. No.: DA110); • RSV pre-F antibody (7E11), epitope V (Cat. No.: DA119); • Standard: RSV-pre-F trimer protein (Novoprotein, Cat. No.: DRA230); • Secondary antibody: peroxidase AffiniPure goat anti-human IgG (H+L) (Yeasen, Cat. No.: N/A); • Experimental group: mRNA vaccines after screening in Example 5;
(§3) Cell culture and transfection, and protein sample preparation: the experimental procedures were the same as in Example 3.
(§4) Detection of antigen expression by ELISA: the experimental procedures were the same as in Example 5.
(§5) In the present application, the binding of different mutant antigens to antibodies recognizing different epitopes was detected by ELISA, and the strength of the binding of the antigens to the antibodies was measured by the binding amount. (1) The RSV pre-F antibody (3C12) recognizing the epitope Φ binds only to the F protein in the pre-fusion conformation; (2) the RSV pre-F antibody (7H11) recognizes the epitope Quaternary (spanning both epitopes IV and V) and specifically binds to the F protein in the pre-fusion conformation; (3) the RSV F antibody (11A9) recognizing the epitope II can recognize both the pre-fusion and post-fusion conformations of the F protein; (4) the RSV F antibody […] recognizing the epitope III preferentially recognizes the pre-fusion conformation and has relatively weak binding activity for the post-fusion conformation; (5) the RSV pre-F antibody (7E11) recognizing the epitope V binds only to the F protein in the pre-fusion conformation.

[3] = test system: RSV pre-F antibody (7H11); experiment: ELISA binding of RSV F antigen mutants, epitope Quaternary; conditions: for Binding amount to antibody/binding amount of PC-RSV-064 to antibody, Epitope Quaternary: antibody 7H11, relative to PC-RSV-064
Method: as §1, §2, §3, §4, §5

RSV F antibody (11A9) = experiment: ELISA binding of RSV F antigen mutants, epitope II; conditions: for Binding amount to antibody/binding amount of PC-RSV-064 to antibody, Epitope II: antibody 11A9, relative to PC-RSV-064
Method: as §1, §2, §3, §4, §5

RSV F antibody (4B9) = experiment: ELISA binding of RSV F antigen mutants, epitope III; conditions: for Binding amount to antibody/binding amount of PC-RSV-064 to antibody, Epitope III: antibody 4B9, relative to PC-RSV-064
Method: as §1, §2, §3, §4, §5

[4] = test system: RSV pre-F antibody (7E11); experiment: ELISA binding of RSV F antigen mutants, epitope V; conditions: for Binding amount to antibody/binding amount of PC-RSV-064 to antibody, Epitope V: antibody 7E11, relative to PC-RSV-064
Method: as §1, §2, §3, §4, §5

Row | Molecule | Φ/II (%) [1] | ELISA binding amount, Epitope Φ, RSV pre-F antibody (3C12) [2] | Binding amount to antibody/binding amount of PC-RSV-064 to antibody, Epitope Φ [2] | ELISA binding amount, Epitope Quaternary, RSV pre-F antibody (7H11) [3] | Binding amount to antibody/binding amount of PC-RSV-064 to antibody, Epitope Quaternary [3] | ELISA binding amount, Epitope II, RSV F antibody (11A9) (RSV F antibody (11A9)) | Binding amount to antibody/binding amount of PC-RSV-064 to antibody, Epitope II (RSV F antibody (11A9)) | ELISA binding amount, Epitope III, RSV F antibody (4B9) (RSV F antibody (4B9)) | Binding amount to antibody/binding amount of PC-RSV-064 to antibody, Epitope III (RSV F antibody (4B9)) | ELISA binding amount, Epitope V, RSV F antibody (7E11) [4] | Binding amount to antibody/binding amount of PC-RSV-064 to antibody, Epitope V [4]
1 | B1 | 97.0% | 8589 ng/mL | 3.10 | 4317 ng/mL | 1.20 | 3856 ng/mL | 1.84 | 7298 ng/mL | 2.54 | 91 ng/mL | 0.28
2 | B2 | 97.1% | 5210 ng/mL | 1.88 | 6346 ng/mL | 1.76 | 2823 ng/mL | 1.34 | 4779 ng/mL | 1.67 | 129 ng/mL | 0.40
